PMC7043024

Target: LSD1 (lysine specific demethylase 1), full length (UniProt O60341)

K (M,post) (post-equilibrium apparent Michaelis-Menten constant) of the demethylation of K4meK9 by 200 nM CoREST ternary complex, APO, real-time 1H NMR assay: 2.3 µM
K (M,post) (post-equilibrium apparent Michaelis-Menten constant) of the demethylation of K4meK9 by the CoREST ternary complex pre-equilibrated with 5 μM MS275 HDAC inhibitor, real-time 1H NMR assay: 9.2 µM
Substance: H3K4me 1-21 peptide
